From paper PMC7395135, “Structures of the human mitochondrial ribosome bound to EF-G1 reveal distinct features of mitochondrial translation elongation” (Nature Communications, 2020) come the findings set out here.

The experiment deals with mitoribosomal protein uL12m (human (endogenous in HEK293S GnTI), UniProt P52815 37-198). Briefly: cryo-EM structure; 150 nM 55S mitoribosomes incubated with 5 uM EF-G1mt and 1 mM GMPPCP at 37 °C for 5 min in HEPES polymix buffer; three classes (I, II, III) from one sample. Conditions: both partners purified.

B1: human mitochondrial elongation factor G1 (natural protein)
chain: not shown
notes: also called EF-G1mt; source: E. coli BL21(DE3) (RIL), purified (Ni-NTA, cation exchange TSKgel SP-5PW)
For the molecule B1, the binding result was “binds”.
